We go through one sequence from patent US20240309045A1, “NLRP3 INFLAMMASOME INHIBITORY PEPTIDE FOR TREATMENT OF INFLAMMATORY DISEASES” (AJOU UNIVERSITY INDUSTRY-ACADEMIC COOPERATION FOUNDATION, priority 2021, published 2024).

The target in assay [1] is T1, NLRP3 inflammasome (Homo sapiens, UniProt Q96P20+Q9ULZ3).
T1 construct: THP1-derived macrophages were primed with LPS (10 ng/ml) for 3 hours and then treated with peptides; endogenous in cells; host or cells: THP1-derived macrophages
The assay can be described thus: NLRP3-mediated IL-1β secretion ELISA (LPS priming, nigericin activation). It is filed as cell-based. As to conditions: THP1-derived macrophages, LPS-primed, peptide 1 to 20 μM (FIG. 1E). The method, then: (§1) THP1-derived macrophages were seeded at a density of […] in a 96-well plate (BD Biosciences) and grown overnight. The next day, the cells were primed with LPS (Sigma-Aldrich) at a concentration of 10 ng/ml or human tumor necrosis factor alpha (TNF-α; R&D Systems, Minneapolis, Minn., USA) at a concentration of 100 ng/ml for 3 hours, and then treated with peptides at different concentrations for 1 hour. In order to activate the NLRP3 pathway, LPS-primed cells were stimulated for 2 hours with […] nigericin (Invivogen, Carlsbad, CA, USA), which is a known NLRP3 activator. After 6 hours of treatment, the secretion levels of IL-1β and IL-18 were evaluated using a Human IL-1β Uncoated ELISA Kit (Invitrogen) and a Human IL-18 ELISA kit (RayBiotech, Norcross, GA, USA), respectively. The secretion levels of IL-8 and TNF-α were analyzed using a Human IL-8 ELISA kit and a TNF-α ELISA Kit (Invitrogen), respectively. In all experiments, absorbance was analyzed at an appropriate wavelength using a microplate spectrophotometry system (Molecular Devices Inc., Silicon Valley, CA, USA).
(§2) Overall, activation of the NLRP3 inflammasome results not only in cleavage of pro-IL-1β and pro-IL-18, but also in release of active IL-1β and IL-18 and other soluble inflammatory mediators. Thus, NIP was mainly evaluated for regulatory effect on the NLPR3-mediated pathway through the assessment of IL-1β secretion. […]

Assay [2] addresses T1, NLRP3 inflammasome. The assay can be described thus: NLRP3-mediated IL-18 secretion ELISA (LPS priming, nigericin activation). The following applies: THP1-derived macrophages, LPS-primed, nigericin (FIG. 1E, 4B). Format: cell-based. The method, then:
as §1, §2

T1 sequence (Q96P20 whole entry): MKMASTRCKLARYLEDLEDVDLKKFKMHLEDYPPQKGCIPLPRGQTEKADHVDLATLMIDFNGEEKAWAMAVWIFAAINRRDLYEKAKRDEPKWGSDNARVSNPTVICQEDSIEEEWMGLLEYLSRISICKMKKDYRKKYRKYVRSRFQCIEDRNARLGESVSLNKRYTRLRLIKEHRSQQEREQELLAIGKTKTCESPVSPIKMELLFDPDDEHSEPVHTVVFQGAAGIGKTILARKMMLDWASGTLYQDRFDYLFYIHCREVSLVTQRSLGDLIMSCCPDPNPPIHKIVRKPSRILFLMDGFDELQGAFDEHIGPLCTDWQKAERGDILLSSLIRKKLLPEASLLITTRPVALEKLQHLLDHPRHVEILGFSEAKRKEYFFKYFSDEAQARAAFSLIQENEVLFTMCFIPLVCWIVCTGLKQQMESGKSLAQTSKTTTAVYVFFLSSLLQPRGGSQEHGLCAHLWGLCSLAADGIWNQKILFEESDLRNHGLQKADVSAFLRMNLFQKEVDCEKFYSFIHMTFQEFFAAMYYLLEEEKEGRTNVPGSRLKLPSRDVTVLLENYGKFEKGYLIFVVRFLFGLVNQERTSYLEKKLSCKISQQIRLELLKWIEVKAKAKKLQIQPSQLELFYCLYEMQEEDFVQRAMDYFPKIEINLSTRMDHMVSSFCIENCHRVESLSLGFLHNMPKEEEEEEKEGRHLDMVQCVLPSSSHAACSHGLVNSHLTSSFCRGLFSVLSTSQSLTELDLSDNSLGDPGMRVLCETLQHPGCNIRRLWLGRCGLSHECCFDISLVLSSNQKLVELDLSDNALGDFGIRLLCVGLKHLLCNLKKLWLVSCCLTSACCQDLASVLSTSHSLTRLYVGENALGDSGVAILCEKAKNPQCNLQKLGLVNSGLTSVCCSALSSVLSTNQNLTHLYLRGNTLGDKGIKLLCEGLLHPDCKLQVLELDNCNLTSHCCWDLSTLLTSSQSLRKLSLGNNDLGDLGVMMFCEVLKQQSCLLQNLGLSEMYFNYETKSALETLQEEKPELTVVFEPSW
T1 sequence (Q9ULZ3 whole entry): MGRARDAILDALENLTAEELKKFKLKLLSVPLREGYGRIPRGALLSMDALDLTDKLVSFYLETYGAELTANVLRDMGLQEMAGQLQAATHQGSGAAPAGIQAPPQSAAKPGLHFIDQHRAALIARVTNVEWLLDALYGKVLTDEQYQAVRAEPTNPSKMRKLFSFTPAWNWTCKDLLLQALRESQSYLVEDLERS

As to “DALDLTDKLVS (NLRP3/ASC-inhibitory peptide 7 (NIP7)) [evaluated fused at the N-terminus with penetratin]”, the “Inhibition of NLPR3-mediated IL-1β secretion” value with NLRP3 inflammasome [1] is recorded as “did not have the ability to inhibit”. The “Inhibition of IL-18 secretion” value in the assay with NLRP3 inflammasome [2] is “did not have the ability to inhibit”.
